First the molecules themselves.
T1: Spo11 (subunit of the purified S. cerevisiae Spo11 core complex) (S. cerevisiae, UniProt P23179 1-392)
T1 construct: Spo11, S. cerevisiae; The complex was purified on NiNTA and anti-Flag resin; Surmise: the tags are on Spo11; source: Sf9 cells, baculovirus coinfection with Rec102, Rec104 and Ski8; purified as the core complex (NiNTA, Anti-Flag M2, Superdex 200)
T1 sequence: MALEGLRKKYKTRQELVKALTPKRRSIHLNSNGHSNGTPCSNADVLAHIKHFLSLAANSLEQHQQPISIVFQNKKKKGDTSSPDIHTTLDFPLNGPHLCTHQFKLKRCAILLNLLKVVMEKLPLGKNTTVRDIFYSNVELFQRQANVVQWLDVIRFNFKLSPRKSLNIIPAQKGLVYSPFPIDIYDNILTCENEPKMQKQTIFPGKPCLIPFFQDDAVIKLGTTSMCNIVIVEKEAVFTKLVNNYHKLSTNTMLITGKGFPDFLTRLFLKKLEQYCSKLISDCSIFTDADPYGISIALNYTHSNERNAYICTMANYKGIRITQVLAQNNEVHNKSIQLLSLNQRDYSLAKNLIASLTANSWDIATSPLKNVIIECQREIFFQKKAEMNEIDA

B1: Ski8 (subunit of the purified S. cerevisiae Spo11 core complex) (natural protein)
chain: MSKVFIATANAGKAHDADIFSVSACNSFTVSCSGDGYLKVWDNKLLDNENPKDKSYSHFVHKSGLHHVDVLQAIERDAFELCLVATTSFSGDLLFYRITREDETKKVIFEKLDLLDSDMKKHSFWALKWGASNDRLLSHRLVATDVKGTTYIWKFHPFADESNSLTLNWSPTLELQGTVESPMTPSQFATSVDISERGLIATGFNNGTVQISELSTLRPLYNFESQHSMINNSNSIRSVKFSPQGSLLAIAHDSNSFGCITLYETEFGERIGSLSVPTHSSQASLGEFAHSSWVMSLSFNDSGETLCSAGWDGKLRFWDVKTKERITTLNMHCDDIEIEEDILAVDEHGDSLAEPGVFDVKFLKKGWRSGMGADLNESLCCVCLDRSIRWFREAGGK
notes: Ski8, WD-repeat protein, S. cerevisiae; source: Sf9 cells, baculovirus coinfection with Spo11, Rec102 and Rec104; purified as the core complex (NiNTA, Anti-Flag M2, Superdex 200)
B2: Rec104 (subunit of the purified S. cerevisiae Spo11 core complex) (natural protein)
chain: MSIEEEDTNKITCTQDFLHQYFVTERVSIQFGLNNKTVKRINKDEFDKAVNCIMSWTNYPKPGLKRTASTYLLSNSFKKSATVSLPFILGDPVCMPKRVESNNNDTCLLYSDTLYDDPLIQRNDQAGDEIEDEFSFTLLRSEVNEIRPISSSSTAQILQSDYSALMYERQASNGSIFQFSSP
notes: Rec104, S. cerevisiae; source: Sf9 cells, baculovirus coinfection with Spo11, Rec102 and Ski8; purified as the core complex (NiNTA, Anti-Flag M2, Superdex 200)
B3: Rec102 (subunit of the purified S. cerevisiae Spo11 core complex) (natural protein)
chain: MARDITFLTVFLESCGAVNNDEAGKLLSAWTSTVRIEGPESTDSNSLYIPLLPPGMLKIKLNFKMNDRLVTEEQELFTKLREIVGSSIRFWEEQLFYQVQDVSTIENHVILSLKCTILTDAQISTFISKPRELHTHAKGYPEIYYLSELSTTVNFFSKEGNYVEISQVIPHFNEYFSSLIVSQLEFEYPMVFSMISRLRLKWQQSSLAPISYALTSNSVLLPIMLNMIAQDKSSTTAYQILCRRRGPPIQNFQIFSLPAVTYNK
notes: Rec102, S. cerevisiae; source: Sf9 cells, baculovirus coinfection with Spo11, Rec104 and Ski8; purified as the core complex (NiNTA, Anti-Flag M2, Superdex 200)

Assay [1] concerns the target T1, Spo11 (subunit of the purified S. …). The assay is described as follows: cryo-EM structure; core complex (~0.2 mg/ml) incubated with 23-bp hairpin DNA with a two-nucleotide 5' overhang, molar ratio 1:2, 25 mM HEPES-NaOH pH 7.5, 150 mM NaCl, 5 mM MgCl2, 2 mM DTT, 2% glycerol, 1 hr on ice; 3.7 Å. The note with it: both partners purified.
Assay [2] concerns the target B3. The description is as above. The settings on record: both partners purified.

What is called stoichiometry N is a count of units in the complex or per binding partner. On to B1, for which, in assay [1], the “stoichiometry N” value was 1.

As to B2, the “stoichiometry N” value in assay [2] and in assay [1] was 1 each time.

With B3, in assay [1], the “stoichiometry N” value amounted to 1.

The record behind these values is publication doi:10.1101/2023.10.31.564985, “Cryo-EM structure of the Spo11 core complex bound to DNA” (bioRxiv, 2023).
